Our source for the Kd values is patent US20150051136A1 (US Dept. of Health and Human Services, published 2015).

This test addresses T1, sRAGE^CHO(N25T/N81T) (human, UniProt Q15109 26-340).
T1 construct: also called sRAGE (N25T/N81T); N25T/N81T mutant
The test can be described thus: BIAcore SPR, sRAGE amine-coupled to CM5 chip, S100B as analyte, steady state model.

T1 sequence (Q15109 other isoform, or with tags, fused parts or gaps N25T N81T N25T N81T): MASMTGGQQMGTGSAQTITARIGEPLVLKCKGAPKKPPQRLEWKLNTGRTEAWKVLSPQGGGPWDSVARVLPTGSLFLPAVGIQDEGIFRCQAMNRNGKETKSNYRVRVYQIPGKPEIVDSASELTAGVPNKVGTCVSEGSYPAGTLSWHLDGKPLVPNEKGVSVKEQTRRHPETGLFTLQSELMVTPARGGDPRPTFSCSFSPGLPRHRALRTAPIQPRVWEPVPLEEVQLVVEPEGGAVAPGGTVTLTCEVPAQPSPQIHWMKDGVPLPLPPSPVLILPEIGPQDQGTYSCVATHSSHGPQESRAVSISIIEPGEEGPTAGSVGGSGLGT

B1: S100B (ligand)
chain: MSELEKAMVALIDVFHQYSGREGDKHKLKKSELKELINNELSHFLEEIKEQEVVDKVMETLDNDGDGECDFQEFMAFVAMVTTACHEFFEHE
What is called Kd is the concentration at which binding is half-saturated. Low values mean tighter binding, high ones weaker binding. B1 yielded a Kd of 13.6 nM.
